Data on 2 molecules can be found in patent US7211424B1, “Mammalian Subtilisin/kexin isozyme SKI-1: a proprotein convertase with a unique cleavage specificity” (Institut de Recherches Cliniques de Montreal, priority 1999, dated 2007).

The target of one experiment is T1, BTMD-SKI-1 (Homo sapiens, UniProt Q14703).
T1 sequence (Q14703 187-997 limits assumed): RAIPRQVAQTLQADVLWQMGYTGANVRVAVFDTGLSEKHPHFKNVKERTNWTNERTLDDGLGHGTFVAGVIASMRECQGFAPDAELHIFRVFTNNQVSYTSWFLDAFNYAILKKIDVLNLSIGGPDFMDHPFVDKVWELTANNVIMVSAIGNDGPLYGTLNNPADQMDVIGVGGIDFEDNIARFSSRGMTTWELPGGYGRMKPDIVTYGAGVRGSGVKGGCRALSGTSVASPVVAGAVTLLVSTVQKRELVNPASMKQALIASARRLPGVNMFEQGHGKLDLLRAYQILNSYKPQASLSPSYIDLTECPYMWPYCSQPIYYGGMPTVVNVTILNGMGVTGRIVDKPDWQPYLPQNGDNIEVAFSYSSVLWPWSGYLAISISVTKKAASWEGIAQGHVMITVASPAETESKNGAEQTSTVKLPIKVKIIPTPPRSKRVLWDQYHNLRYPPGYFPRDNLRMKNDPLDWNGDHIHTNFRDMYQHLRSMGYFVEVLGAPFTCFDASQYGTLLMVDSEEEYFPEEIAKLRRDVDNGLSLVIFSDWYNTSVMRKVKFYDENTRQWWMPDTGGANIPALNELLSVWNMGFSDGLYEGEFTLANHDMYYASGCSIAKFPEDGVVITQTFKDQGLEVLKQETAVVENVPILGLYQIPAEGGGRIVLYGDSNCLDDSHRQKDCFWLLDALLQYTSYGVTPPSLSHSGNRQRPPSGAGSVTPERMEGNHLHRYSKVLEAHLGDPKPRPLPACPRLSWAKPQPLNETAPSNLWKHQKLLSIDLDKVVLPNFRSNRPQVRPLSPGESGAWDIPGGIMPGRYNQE
T1 sequence (Q14703 17-137 partner limits assumed): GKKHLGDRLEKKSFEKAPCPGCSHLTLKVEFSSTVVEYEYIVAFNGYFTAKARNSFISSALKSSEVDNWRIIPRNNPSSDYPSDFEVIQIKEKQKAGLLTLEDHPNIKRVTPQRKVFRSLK
Kind of experiment: biochemical. It is filed as biochemical.

A further experiment deals with T2, shed-hSKI-1 (Homo sapiens, UniProt Q14703).
T2 construct: SKI-1 is further processed to remove the transmembrane domain that keeps it integrated in the ER membrane, which generates a SKI-1 soluble form; made in house; host or cells: HK293 cells stably transfected with full-length hSKI-1 in pcDNA3; shed enzyme in the medium
Kind of experiment: Hydrolysis of quenched fluorogenic substrates by shed-hSKI-1. Format: biochemical. The settings on record: in the presence of 10 mM EDTA. The protocol: For digestions, each peptide was typically reacted at 37° C. with 10 μl of the concentrated enzyme preparation in a buffer consisting of 50 mM HEPES (N-2-Hydroxyethyl piperazine-N′-2 EthaneSulfonic acid) (ICN Biomedicals Inc), 50 mM MES (2-[N-Morpholino] EthaneSulfonic acid) (Sigma Chem Co.), and 3 mM Ca^2+-acetate (pH 6.5). The digestion products were separated by RP-HPLC on a Beckman 5 μm Ultrasphere C18 column (0.2×25 cm) and eluted with a 1%/min linear gradient of aqueous 0.1% TFA/CH3CN ([…]) at a flow rate of 1 ml/min. The collected peptides were characterized by mass spectrometry and amino acid composition, which was also used to quantitate the amount of various substrates and products. The digestions of the quenched fluorogenic peptides were analyzed by RP-HPLC using a dual UV (210 nm) and fluorescence (excitation and emission wavelengths of 320 and 420 nm, respectively) detector (Rainin).
Km(app), Vmax(app) and Ki(app) determinations—Following digestion reactions with increasing substrate concentrations, the products were separated by RP-HPLC. The rate of substrate hydrolysis was obtained from the integrated peak areas of the chromatograms. […] For the two quenched peptides, kinetic parameters were determined as described (17).

Another experiment has as its target T3, SKI-1 (Homo sapiens, UniProt Q14703).
T3 sequence (Q14703 187-998 limits assumed): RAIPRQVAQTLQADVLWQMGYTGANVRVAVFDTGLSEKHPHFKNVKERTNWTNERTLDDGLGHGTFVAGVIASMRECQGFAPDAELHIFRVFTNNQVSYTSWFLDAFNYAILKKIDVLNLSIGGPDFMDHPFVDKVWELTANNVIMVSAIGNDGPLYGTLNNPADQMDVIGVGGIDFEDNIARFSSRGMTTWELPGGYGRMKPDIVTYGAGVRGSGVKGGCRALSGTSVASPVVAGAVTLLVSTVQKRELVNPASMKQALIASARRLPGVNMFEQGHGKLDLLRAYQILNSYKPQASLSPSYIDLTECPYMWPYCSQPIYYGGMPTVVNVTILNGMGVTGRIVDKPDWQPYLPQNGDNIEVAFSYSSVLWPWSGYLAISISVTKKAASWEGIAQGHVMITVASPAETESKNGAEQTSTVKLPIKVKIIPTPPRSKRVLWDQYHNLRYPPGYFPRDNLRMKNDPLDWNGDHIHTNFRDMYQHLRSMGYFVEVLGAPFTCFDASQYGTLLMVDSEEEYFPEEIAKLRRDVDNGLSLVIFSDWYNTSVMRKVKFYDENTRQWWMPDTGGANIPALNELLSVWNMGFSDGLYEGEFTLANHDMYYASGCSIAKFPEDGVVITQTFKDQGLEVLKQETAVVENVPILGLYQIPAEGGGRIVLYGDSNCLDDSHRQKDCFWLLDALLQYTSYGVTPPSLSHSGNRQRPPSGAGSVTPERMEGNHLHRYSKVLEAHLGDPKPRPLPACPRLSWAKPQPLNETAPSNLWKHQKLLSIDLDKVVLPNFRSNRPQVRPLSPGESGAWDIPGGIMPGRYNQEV
Format: biochemical. The settings on record: overnight 37° C., pH 6.0; PMSF 0.5 mM + pAPMSF 50 μM, o-phenanthroline 5 mM, EDTA 10 mM.

For another experiment, the target named is T4, SKI-1 protease (Homo sapiens, UniProt Q14703).
T4 construct: endogenous in cells; the enzyme itself is not transfected
T4 sequence (Q14703 187-1052): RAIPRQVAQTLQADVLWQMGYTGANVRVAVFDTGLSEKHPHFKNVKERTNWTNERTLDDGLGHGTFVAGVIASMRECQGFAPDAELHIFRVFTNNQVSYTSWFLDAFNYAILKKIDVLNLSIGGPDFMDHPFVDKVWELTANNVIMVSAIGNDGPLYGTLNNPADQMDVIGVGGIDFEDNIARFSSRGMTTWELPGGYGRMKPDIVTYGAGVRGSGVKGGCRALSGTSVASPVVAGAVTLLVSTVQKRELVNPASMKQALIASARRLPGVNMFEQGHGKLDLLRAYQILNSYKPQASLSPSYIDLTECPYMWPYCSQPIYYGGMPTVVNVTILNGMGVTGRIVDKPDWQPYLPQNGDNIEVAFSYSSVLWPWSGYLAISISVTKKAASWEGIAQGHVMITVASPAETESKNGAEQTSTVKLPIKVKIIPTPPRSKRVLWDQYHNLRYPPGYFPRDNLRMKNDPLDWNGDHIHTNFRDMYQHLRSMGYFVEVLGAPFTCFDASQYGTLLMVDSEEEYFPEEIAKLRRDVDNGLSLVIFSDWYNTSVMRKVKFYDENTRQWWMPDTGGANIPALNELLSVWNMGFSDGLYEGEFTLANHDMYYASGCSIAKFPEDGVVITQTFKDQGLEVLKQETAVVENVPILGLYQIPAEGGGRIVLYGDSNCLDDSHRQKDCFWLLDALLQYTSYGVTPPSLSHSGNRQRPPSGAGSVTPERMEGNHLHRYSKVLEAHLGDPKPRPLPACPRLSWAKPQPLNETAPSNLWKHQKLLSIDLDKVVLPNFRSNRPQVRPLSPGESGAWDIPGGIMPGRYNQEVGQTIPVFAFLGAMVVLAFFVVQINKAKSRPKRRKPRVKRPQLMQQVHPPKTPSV
Kind of experiment: SREBP-1 processing in stable HK293 cell lines overexpressing ProSKI-1 and SREBP-1 (immunoblot). It is filed as cell-based. The protocol: Cell Culture: HK293 cells were maintained as monolayers in Dulbecco's modified Eagle's medium containing 100 units/ml penicillin and 100 μg/ml streptomycin sulfate (medium A) supplemented with 10% fetal calf serum. 24 hours before RNA and protein extractions medium A was supplemented with 5% lipoprotein deficient serum, 50 μM mevalonate (Sigma), 50 μM compactin (Sigma) and with no sterols or 1 μg/ml of 25-hydroxy-cholesterol and 10 μg/ml of cholesterol. 4 hours before protein extraction 25 μg/ml N-acetyl-leucinyl—leucinyl norleucinal was added. Total RNA was isolated with Trizol (Gibco BRL) reagent according to the instructions of the manufacturer. In order to extract proteins cells were washed and collected in PBS with protease inhibitors ( ). After addition of buffer A (Triton×100 1%,50 mM tris maleate, 2 mM CaCl2, inhibitor coctail ( ), and ALLN) cells were mixed with pipette and allowed to swell on ice for 20 minutes Then the solution was centrifuged for 5 minutes at 15, 000 rpm and supernatants representing membrane proteins were collected and stored until analyzed at −70° C. […]
Transfections: HK293 cells were plated at a density of 5×10^5 /60 mm dish in medium A with 10% fetal calf serum and were cultured until they were 40–60% confluent. […] Colonies were isolated and formed stable cell lines were analyzed by immunoblotting with ProSKI-1 and SREBP-1 antibodies. […]

Experiment [1] concerns SREBP mediated transcription. Kind of experiment: SREBP target gene mRNA in HK293 cells overexpressing ProSKI-1 and SREBP-1 (Northern blot). Format: cell-based, human. The protocol:
Cell Culture: […] Total RNA was isolated with Trizol (Gibco BRL) reagent according to the instructions of the manufacturer. In order to extract proteins cells were washed and collected in PBS with protease inhibitors ( ). […] Samples were shaken at 4 C for 1 hour and centrifuged and the supernatant was frozen in aliquots at -70° C. Transfections: […] On day two medium containing appropriate selection agents (800 μg/ml Geneticin for pcDNA3neo, […] Zeocin for pcDNA3zeo) were added. The medium was changed every two days until defined colonies were evident. Colonies were isolated and formed stable cell lines were analyzed by immunoblotting with ProSKI-1 and SREBP-1 antibodies. […] After transfer filters were crosslinked by UV irradiation in a Stratalinker (Stratagene). Filters were prehydridized at 42° C. for 1 hour and hybridized with random labeled ^32P cDNA probes for 16-20 hours. UltrahybTM buffer (Ambion) was used. After hybridization filters were washed and exposed to film for indicated time and bands were quantified by densitometry. Primer pairs were used to clone cDNA probes: HMG CoA reductase [[NT] ID NO: 21)] [[NT] ID NO: 22)], farnesyl diphosphate [[NT] ID NO: 23)], [[NT] ID NO: 24)], Fatty acid synthase [[NT] ID NO: 25)], [[NT] ID NO: 26)], Acetyl CoA carboxylase [[NT] ID NO: 27)], [5' [NT]3 (SEQ ID NO: 28)], SREBP-1 [[NT] ID NO: 29)], [[NT] ID NO: 30)]. […]

The next experiment has as its target furin (Homo sapiens, UniProt P09958). Kind of experiment: Specificity of ProSKI-1: processing of neurotrophin-3 (NT-3), a substrate not processed by SKI-1. It is filed as cell-based.

Sequence of furin (P09958 108-794, species assumed): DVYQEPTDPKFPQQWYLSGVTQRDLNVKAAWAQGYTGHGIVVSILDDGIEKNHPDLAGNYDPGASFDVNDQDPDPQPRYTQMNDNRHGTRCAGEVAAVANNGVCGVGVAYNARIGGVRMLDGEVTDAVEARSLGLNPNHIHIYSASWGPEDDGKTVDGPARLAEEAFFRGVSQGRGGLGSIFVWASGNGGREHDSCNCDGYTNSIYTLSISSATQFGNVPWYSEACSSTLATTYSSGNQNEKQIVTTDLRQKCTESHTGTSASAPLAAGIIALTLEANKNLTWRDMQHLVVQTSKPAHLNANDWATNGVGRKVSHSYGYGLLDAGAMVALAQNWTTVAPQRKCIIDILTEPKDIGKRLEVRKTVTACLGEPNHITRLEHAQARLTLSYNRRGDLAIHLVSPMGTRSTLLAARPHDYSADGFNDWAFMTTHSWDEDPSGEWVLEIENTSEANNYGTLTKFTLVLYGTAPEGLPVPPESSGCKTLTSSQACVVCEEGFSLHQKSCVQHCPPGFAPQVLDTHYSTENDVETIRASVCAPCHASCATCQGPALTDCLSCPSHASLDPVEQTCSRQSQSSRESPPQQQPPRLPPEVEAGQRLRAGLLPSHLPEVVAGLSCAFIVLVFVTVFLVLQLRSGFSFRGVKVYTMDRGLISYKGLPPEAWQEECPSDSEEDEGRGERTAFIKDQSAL

Take `O=C(O)CN(CCN(CC(=O)O)CC(=O)O)CC(=O)O` [EDTA]: the “Hydrolysis of SREBP-2 peptide (% of control)” value on BTMD-SKI-1 is reported as 0 % of control. For the same molecule, at shed-hSKI-1, the “cleavage of quenched fluorogenic peptide at the RSLK↓ site” value is recorded as “completely abolished”. For the same molecule, the “inhibition of the processing of proBDNF by SKI-1” value on SKI-1 is reported as “effectively inhibit”.

B1: ProSKI-1: the 188 amino acids that make up the signal peptide and the prosegment of SKI-1, expressed in HK293 cells (protein)
chain: GKKHLGDRLEKKSFEKAPCPGCSHLTLKVEFSSTVVEYEYIVAFNGYFTAKARNSFISSALKSSEVDNWRIIPRNNPSSDYPSDFEVIQIKEKQKAGLLTLEDHPNIKRVTPQRKVFRSLKYAESDPTVPCNETRWSQKWQSSRPLRRASLSLGSGFWHATGRHSSRRLLRA
On to B1, for which the “processing of cytoplasmic proSREBP-1 into intermediate form(s)” value in the experiment with SKI-1 protease (HK293 cell lines overexpressing SREBP-1 together with ProSKI-1) is “formation of the intermediate form(s) of SREBP-1 was abolished”. In addition, the “nuclear SREBP-1” value with SKI-1 protease (HK293 nuclear extracts, absence of sterols) is “Only minute amounts of nuclear SREBPs were detected”. In addition, in experiment [1] (HK293 cells, with and without lipids, early passages of previously frozen cell lines), the “mRNA levels of LDL-receptor, HMG-CoA reductase, farnesyl diphosphate and fatty acid synthase” value is “greatly reduced”. Moreover, the “target gene mRNA levels” value in experiment [1] (same clones kept in culture for further passages) is reported as “normal or even higher than in control cells”. Also, the “level and furin-derived processing of NT-3” value in the experiment with furin was “unaffected”.
